From patent publication US20170304384A1 (AFFIRIS, published 2017) come the findings set out here.

The target of one assay is T1, peptide p7552 (human, not fully specified (residue 1)).
T1 peptide: CSSEIVLD
The assay is described as follows: peptide ELISA at a mAB concentration of 1 ng/µl. For orientation: An ELISA detects its analyte on a solid surface through an enzyme-linked reagent.

The target of the next assay is T2, peptide p7562 (human, not fully specified (residue 1)).
T2 peptide: CDSSEIVLD
The assay is described as follows: peptide ELISA at a mAB concentration of 1 ng/µl.

The next assay addresses T3, peptide p7564 (human, not fully specified (residue 1)).
T3 construct: also called cleaved peptide
T3 peptide: CPSDSSEIVLD
Kind of assay: peptide ELISA.

The next assay deals with T4, peptide p7605 (human, not fully specified (residue 1)).
T4 peptide: CSEIVL
The assay is described as follows: peptide ELISA.

In a further assay the target is T5, peptide p6773 (human, not fully specified (residue 18)).
T5 peptide: LPQPPPQAQPLLPQPQPC
Kind of assay: peptide ELISA / peptide microarray.

Assay [1] addresses T6, recombinant N-terminal 610 amino acids Huntingtin fragment recHTT610 (human, UniProt P42858 1-610).
T6 construct: range 1-610; Expressed in HEK293 freestyle cells and captured from cell extract by anti-V5 antibody; also called recombinant Huntingtin; reHTT610; not shown: two C-terminal V5 tags
Kind of assay: recHTT610 capture ELISA. The method, then:
Binding of antibodies to N-terminal fragment HTT610 was determined by a standard protein capture ELISA procedure using Maxisorb™ ELISA plates (Thermo; CatNr. 439454), coated with 50 μl of a 1:5000 rabbit anti V5 mAB (Sigma, CatNr. V8137), blocking with blocking buffer (PBS, 1% BSA, 0.1% Tween 20), capturing of recombinant Huntingtin from HEK cell extracts (100 ng/μl total protein) followed by incubation with several dilutions of mouse anti HTT sera (1:100; 1:300 and 1:900) or with mAB2166 as reference (diluted 1:2000; Millipore, Cat Nr. MAB2166) for 1 hour at RT. ELISA incubations, washing and detection procedures were performed according to standard procedures.
In contrast to specific anti peptide signals (FIG. 11), only 2 out of 9 mAB candidates, namely PRR13 and PRR18, specifically recognize recombinant Huntingtin when tested by recHTT610 capture ELISA (as explained in Example 1). These two candidates provided an outstanding signal to noise ratio (i.e. >=4; calculated reHTT610-specific signal: HEK ctrl extracts), and PRR13 was selected for epitope characterization (see Example 4) and variable chain sequencing (see below). PRR13 was determined as IgG subtype mouse IgG2a.

Ends that are not written are not given here.

T6 sequence (P42858 1-610): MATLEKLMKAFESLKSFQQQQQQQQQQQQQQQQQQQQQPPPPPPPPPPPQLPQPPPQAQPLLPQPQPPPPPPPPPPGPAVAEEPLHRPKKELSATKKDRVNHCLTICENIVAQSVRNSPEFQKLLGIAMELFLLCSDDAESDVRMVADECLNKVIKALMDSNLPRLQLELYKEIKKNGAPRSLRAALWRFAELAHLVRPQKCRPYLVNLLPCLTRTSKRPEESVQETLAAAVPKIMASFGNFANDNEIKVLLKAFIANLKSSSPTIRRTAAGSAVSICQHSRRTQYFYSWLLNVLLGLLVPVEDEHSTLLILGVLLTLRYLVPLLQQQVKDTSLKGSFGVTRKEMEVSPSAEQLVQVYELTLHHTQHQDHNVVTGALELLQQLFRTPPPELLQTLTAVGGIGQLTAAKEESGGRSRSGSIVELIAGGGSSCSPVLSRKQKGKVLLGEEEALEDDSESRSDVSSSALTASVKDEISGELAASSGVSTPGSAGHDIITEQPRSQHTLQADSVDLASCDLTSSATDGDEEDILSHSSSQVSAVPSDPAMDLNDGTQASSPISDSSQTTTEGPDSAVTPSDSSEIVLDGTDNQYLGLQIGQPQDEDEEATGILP

B1: monoclonal antibody M1D1 (antibody, mouse IgM, V domains shown)
VH: EVQLVESGGGLVQPKGSLKLSCAASGFTFNTYAMNWVRQAPGKGLEWVARIRSKSNNYATYYADSVKDRFTISRDDSQSMLYLQMNNLKTEDTAMYYCVRHGEYGNPWFAYWGQGTLVTVSA
VL: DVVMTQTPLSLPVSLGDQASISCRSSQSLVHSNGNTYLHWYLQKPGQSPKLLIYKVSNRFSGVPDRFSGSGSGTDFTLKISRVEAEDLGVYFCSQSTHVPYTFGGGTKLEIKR
notes: Mouse hybridoma mAb raised with p7564, typed mouse IgM; The consensus entries appear to include the leader and the start of the constant region; also called mAB M1D1
Take B1: the binding result is given as “binds” with peptide p7552, “binds” with peptide p7562, “binds” in the assay with peptide p7564 and “no binding (tested: mAB concentration of 1 ng/µl)” in the assay with peptide p7605.

B2: monoclonal antibody PRR13 (antibody, mouse IgG2a, V domains shown)
VH: EVQLQQSAPELVKPGASVKMSCKASGYSFTDFYMKWVKQSHGKGLEWIGDIDPKNGDTFYNQKFKGRATLTVDKSSSTAYMQLNSLTTEDSAVYYCATYYGYTMDYWGQGTSVTVSS
VL: QIVLTQSPAIMSASLGERVTMTCTASSSVTSSYLHWYQQKPGSSPKLWIYSTSNLASGVPARFSGSGSGTSYSLTISSMEAEDAATYYCHQYRRPPRTFGGGTKLEIKR
notes: Mouse hybridoma mAb raised with p6773, typed mouse IgG2a; The consensus entries come from cDNA and appear to include the leader and the start of the constant region; also called mAB PRR13
Regarding B2, the binding result in the assay with peptide p6773 is reported as “binds”. The “signal to noise ratio (reHTT610-specific signal : HEK ctrl extracts)” value in assay [1] was no less than 4 ratio.
